The values that follow come from publication PMC11672753 (Plant Biotechnology Journal, 2024).

The target in the test is T1, SARS-CoV-2 RBD (Wuhan), hexahistidine-tagged (SARS-CoV-2, UniProt P0DTC2).
T1 construct: also called recombinant RBD protein
Briefly: BLI. Conditions: both partners purified.

B1: M15 (plant-produced COVA2-15, conventional IgG1) (antibody, V domains shown)
VH: QVQLLESGGGLVQPGGSLRLSCAASGFTFSSYAMSWVRQAPGKGLEWASAISGSGGSTYYADSVEGRFTISRDNSKNTLYLQMNSLRAEDTAVYYCAKDTGYCGDDCYIKLIRGGPDYWGQGTLVTVSS
VL: DIVMTQSPLSLPVTLGQPASISCRSSQSLVYSDGNTFLNWFQQRPGQSPRRLIYQVSNRDSGVPDRFSGSGSGTDFTLKISRVEAEDVGVYYCMQGTHWPRTFGQGTKLEIK
On to B1, for which the binding result is “binds”.

B2: S15 (plant-produced COVA2-15, single-chain (sc)Fv-Fc format) (Fc fusion, human)
VH: QVQLLESGGGLVQPGGSLRLSCAASGFTFSSYAMSWVRQAPGKGLEWASAISGSGGSTYYADSVEGRFTISRDNSKNTLYLQMNSLRAEDTAVYYCAKDTGYCGDDCYIKLIRGGPDYWGQGTLVTVSS
VL: DIVMTQSPLSLPVTLGQPASISCRSSQSLVYSDGNTFLNWFQQRPGQSPRRLIYQVSNRDSGVPDRFSGSGSGTDFTLKISRVEAEDVGVYYCMQGTHWPRTFGQGTKLEIK
As for B2, the binding result is given as “binds”.
